Molecular target: HLA-A*02:01 (Homo sapiens, UniProt P04439, D140Y/D185E/D98H/E176V/E277Q/G131W/G231S/I119V/I121R/I166T/I218V/L300P/L318F/N151K/N90K/P208A/P217A/Q86G/Q94H/R138H/R169H/T345S)
Assay: MHC binding assay: UV-ligand exchange with beta2m ELISA (peptide exchange yield)
Conditions: binding to HLA-A*02:01
Outline: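 Peptide-MHC complexes formed by UV-ligand exchange, a UV-cleavable peptide being replaced by the candidate peptide. Exchange products diluted 100-fold, captured on streptavidin-coated plates for 1h at 37° C, then detected with 2 ug/ml HRP anti-β2m (1h, 37° C) and TMB, absorbance 450 nm; value is exchange yield.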

Substance | Peptide exchange (MHC class I binding score, peptide exchange yield)
145 (FLATSGTLAGI; listed as Homo sapiens) [compound 145] | “++” (≥20% = ++)
498 (KLWTGGLDNTV; listed as Homo sapiens) [compound 498] | “+++” (≥50 = +++)
171 (LLLPLQILL; listed as Homo sapiens) [compound 171] | “+++” (≥50 = +++)
187 (RQISIRGIVGV; listed as Homo sapiens) [compound 187] | “+++” (≥50 = +++)
344 (YLQDQHLLLTV; listed as Homo sapiens) [compound 344] | “+++” (≥50 = +++)
130 (FLWNGEDSALL; listed as Homo sapiens) [compound 130] | “+++” (≥50 = +++)
560 (ALWDIETGQQTTT; listed as Homo sapiens) [compound 560] | “+++” (≥50 = +++)
391 (YVYPQRLNFV; listed as Homo sapiens) [compound 391] | “+++” (≥50 = +++)
61 (FLQGYQLHL; listed as Homo sapiens) [compound 61] | “++++” (≥75% = ++++)
109 (IILSILEQA; listed as Homo sapiens) [compound 109] | “++++” (≥75% = ++++)
44 (ILDPISSGFLL; listed as Homo sapiens) [compound 44] | “++” (≥20% = ++)
45 (SLWQDIPDV; listed as Homo sapiens) [compound 45] | “+++” (≥50 = +++)
33 (VLLSLLEKV; listed as Homo sapiens) [compound 33] | “++” (≥20% = ++)
342 (HIYDKVMTV; listed as Homo sapiens) [compound 342] | “+++” (≥50 = +++)
215 (QLINHLHAV; listed as Homo sapiens) [compound 215] | “+++” (≥50 = +++)
333 (FLPDANSSV; listed as Homo sapiens) [compound 333] | “++” (≥20% = ++)
523 (YQIPRTFTL; listed as Homo sapiens) [compound 523] | “++” (≥20% = ++)
430 (HLYSSIEHLTT; listed as Homo sapiens) [compound 430] | “+++” (≥50 = +++)
248 (FLFPNQYVDV; listed as Homo sapiens) [compound 248] | “+++” (≥50 = +++)
507 (KLIDDQDISISL; listed as Homo sapiens) [compound 507] | “+++” (≥50 = +++)
151 (KILQQLVTL; listed as Homo sapiens) [compound 151] | “+++” (≥50 = +++)
372 (TMLLNIPLV; listed as Homo sapiens) [compound 372] | “++” (≥20% = ++)
514 (ILVDWLVQV; listed as Homo sapiens) [compound 514] | “+++” (≥50 = +++)

Substance | Peptide exchange (MHC class I binding score, peptide exchange yield)
576 (ILLNNSGQIKL; listed as Homo sapiens) [compound 576] | “++++” (≥75% = ++++)
541 (SMLEPVPEL; listed as Homo sapiens) [compound 541] | “+++” (≥50 = +++)
590 (SLIEKLWQT; listed as Homo sapiens) [compound 590] | “++” (≥20% = ++)
618 (VLFDSESIGIYV; listed as Homo sapiens) [compound 618] | “+++” (≥50 = +++)
107 (FLQPVDDTQHL; listed as Homo sapiens) [compound 107] | “+++” (≥50 = +++)
306 (ALVNVQIPL; listed as Homo sapiens) [compound 306] | “+++” (≥50 = +++)
599 (YLLNDASLISV; listed as Homo sapiens) [compound 599] | “+++” (≥50 = +++)
617 (ALMYESEKVGV; listed as Homo sapiens) [compound 617] | “+++” (≥50 = +++)
8 (FTLGNVVGMYL; listed as Homo sapiens) [compound 8] | “++++” (≥75% = ++++)
217 (ALIHPVSTV; listed as Homo sapiens) [compound 217] | “++” (≥20% = ++)
597 (KLLEGQVIQL; listed as Homo sapiens) [compound 597] | “+++” (≥50 = +++)
228 (AMQEYIAVV; listed as Homo sapiens) [compound 228] | “++” (≥20% = ++)
525 (VLLEAGEGLVTI; listed as Homo sapiens) [compound 525] | “+++” (≥50 = +++)
450 (FMIDASVHPTL; listed as Homo sapiens) [compound 450] | “+++” (≥50 = +++)
619 (ALQDRVPLA; listed as Homo sapiens) [compound 619] | “+++” (≥50 = +++)
120 (ALLGIPLTLV; listed as Homo sapiens) [compound 120] | “+++” (≥50 = +++)
409 (LLDAMNYHL; listed as Homo sapiens) [compound 409] | “++” (≥20% = ++)
63 (YLLPSGGSVTL; listed as Homo sapiens) [compound 63] | “++” (≥20% = ++)
153 (FLIANVLYL; listed as Homo sapiens) [compound 153] | “+” (≥10% = +)
538 (LLLAHIIAL; listed as Homo sapiens) [compound 538] | “++” (≥20% = ++)
47 (ILLSVPLLVV; listed as Homo sapiens) [compound 47] | “++” (≥20% = ++)
328 (ALNDQVFEI; listed as Homo sapiens) [compound 328] | “+++” (≥50 = +++)
349 (SLTEYLQNV; listed as Homo sapiens) [compound 349] | “++++” (≥75% = ++++)

Reference: patent US10464978B2, “Peptides and combination of peptides for use in immunotherapy against ovarian cancer and other cancers” (immatics biotechnologies GmbH, priority 2015, dated 2019)
